Assay results reported in patent publication US20260250318A1, “COMPOSITIONS AND METHODS FOR CROSSING THE BLOOD BRAIN BARRIER” (VOYAGER THERAPEUTICS, INC., priority 2022, published 2026).
Where a chain is given by its changes, count along the chain named.

Assays:
[1] = target: T1, ALPL transcript variant 2 that lacks the ER signal (Homo sapiens, UniProt P05186); experiment: Transduction assay in HEK 293T cells expressing ALPL with deletion of the ER localization signal; type: cell-based; conditions: luciferase, relative to pCMV6
T1 construct: expressed in transfected cells; host or cells: HEK 293T
T1 sequence (P05186 1-469 isoform P05186-3): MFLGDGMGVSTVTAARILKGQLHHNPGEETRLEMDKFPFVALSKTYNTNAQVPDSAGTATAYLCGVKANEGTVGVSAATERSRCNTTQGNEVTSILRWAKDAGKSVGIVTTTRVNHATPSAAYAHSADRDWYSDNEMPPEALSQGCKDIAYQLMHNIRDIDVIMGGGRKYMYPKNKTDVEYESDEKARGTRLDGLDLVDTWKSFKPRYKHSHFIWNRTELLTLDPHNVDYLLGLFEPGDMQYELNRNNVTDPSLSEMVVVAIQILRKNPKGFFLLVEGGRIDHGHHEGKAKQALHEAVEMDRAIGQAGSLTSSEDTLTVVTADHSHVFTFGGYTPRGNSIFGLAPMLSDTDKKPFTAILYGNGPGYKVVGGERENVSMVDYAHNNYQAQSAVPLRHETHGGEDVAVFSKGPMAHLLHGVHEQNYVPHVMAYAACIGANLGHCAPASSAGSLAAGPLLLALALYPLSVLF
Method: To determine if deletion of the endoplasmic reticulum (ER) localization signal of ALPL affected transduction of the TTM-001 and TTM-002 capsid variants, HEK 293T cells were transfected via calcium phosphate transfection with a plasmid expressing ALPL, ALP with a deletion of the ER localization signal (ALPL transcript variant 2 that lacks the ER signal (NM_001127501, which is incorporated by reference herein)), or a pCMV6 negative control. At 24 hours post-transfection, the HEK 293T cells expressing the ALPL receptor were transduced with an AAV particle comprising the TTM-001 capsid variant, the TTM-002 capsid variant, or an AAV9 capsid control, expressing a GFP payload. At 24-hours post-transduction, luciferase activity (RLU) was measured to quantify AAV cellular transduction. Data was normalized to fold change in luciferase activity (RLU) compared to the pCMV6 control.

brain [2] = experiment: Second cross-species screen, passage 2 in C57Bl/6 mice after first passage in NHPs; type: in vivo; conditions: P2 in C57Bl/6 after first passage in NHPs
Method: A second cross-species evolution screen was performed using an AAV capsid variant library with a modification in loop IV introduced as described above and passaging it once through NHPs (passage 1) and then subsequently injected it into two different strains of mice (passage 2), C57Bl/6 and BALB/c. The fold-enrichment for each variant in the brain of each mouse species was calculated by systematic NGS enrichment analysis following RNA recovery and RT-PCR amplification. The fold enrichment values in the second passage in mice were compared to those fold enrichment values from the second pass that was performed in NHPs as described above. […] Further, 10 of these 12 variants comprised the SPH motif and a positive residue in one of the next three subsequent residues (Table 10).

brain [3] = experiment: NGS fold enrichment of AAV capsid variant library, second passage in NHPs; type: in vivo, NHP; conditions: second passage (P2) in NHPs
Description: A TRACER based method as described in WO2020072683, WO 2021/202651, and WO2021230987, the contents of which are herein incorporated by reference in their entirety, was used to generate the AAV capsid variants described herein. An orthogonal evolution approach was combined with a high throughput screening by NGS. Briefly, the library of AAV capsid variants was generated using a sliding window approach, where 6 amino acid sequences were inserted into 8 different positions across loop IV of AAV9, including immediately subsequent to positions 453, 454, 455, 456, 457, 458, 459, and 460, relative to a reference sequence numbered according to SEQ ID NO: 138. The initial library was passed twice through non-human primates (NHP, 2-4 years of age). After the second passage (e.g., 28 days post injection into two NHPs), RNA was extracted from six brain regions. […]
A second cross-species evolution screen was performed using an AAV capsid variant library with a modification in loop IV introduced as described above and passaging it once through NHPs (passage 1) and then subsequently injected it into two different strains of mice (passage 2), C57Bl/6 and BALB/c. The fold-enrichment for each variant in the brain of each mouse species was calculated by systematic NGS enrichment analysis following RNA recovery and RT-PCR amplification. […]

[4] = tested on: brain, spinal cord, and DRG of the NHPs; experiment: NGS fold enrichment of synthetic library (passage 3) in NHPs, first cross-species screen; type: in vivo, cynomolgus macaques (Macaca fascicularis); conditions: for fold enrichment in the DRG of NHPs relative to AAV9 / fold enrichment in the brain of NHPs relative to AAV9 / fold enrichment in the spinal cord of NHPs relative to AAV9: passage 3, intravenous; for Fold enrichment over AAV9 in the brain of NHPs / Fold enrichment over AAV9 in the spinal cord of NHPs: synthetic library passage 3, intravenous, RNA NGS, relative to wild-type AAV9
In short: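 Synthetic capsid library (passage 3) was given intravenously […] to NHPs aged 2-4 years and to BALB/c and C57Bl/6 mice (n=3 each, 6-8 weeks). After about 28 days in vivo, tissue RNA was RT-PCR amplified and NGS-sequenced; values are fold enrichment per variant relative to wild-type AAV9.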

B1: TTM-001: AAV9 capsid variant comprising SPHSKA (SEQ ID NO: 941) in loop IV (protein)
chain 1: MAADGYLPDWLEDNLSEGIREWWALKPGAPQPKANQQHQDNARGLVLPGYKYLGPGNGLDKGEPVNAADAAALEHDKAYDQQLKAGDNPYLKYNHADAEFQERLKEDTSFGGNLGRAVFQAKKRLLEPLGLVEEAAKTAPGKKRPVEQSPQEPDSSAGIGKSGAQPAKKRLNFGQTGDTESVPDPQPIGEPPAAPSGVGSLTMASGGGAPVADNNEGADGVGSSSGNWHCDSQWLGDRVITTSTRTWALPTYNNHLYKQISNSTSGGSSNDNAYFGYSTPWGYFDFNRFHCHFSPRDWQRLINNNWGFRPKRLNFKLFNIQVKEVTDNNGVKTIANNLTSTVQVFTDSDYQLPYVLGSAHEGCLPPFPADVFMIPQYGYLTLNDGSQAVGRSSFYCLEYFPSQMLRTGNNFQFSYEFENVPFHSSYAHSQSLDRLMNPLIDQYLYYLSKTINGSGSPHSKAQNQQTLKFSVAGPSNMAVQGRNYIPGPSYRQQRVSTTVTQNNNSEFAWPGASSWALNGRNSLMNPGPAMASHKEGEDRFFPLSGSLIFGKQGTGRDNVDADKVMITNEEEIKTTNPVATESYGQVATNHQSAQAQAQTGWVQNQGILPGMVWQDRDVYLQGPIWAKIPHTDGNFHPSPLMGGFGMKHPPPQILIKNTPVPADPPTAFNKDKLNSFITQYSTGQVSVEIEWELQKENSKRWNPEIQYTSNYYKSNNVEFAVNTEGVYSEPRPIGTRYLTRNL
chain 2: GSGSPHSKAQNQQT
increase in transduction in cells expressing ALPL with deleted ER localization signal [1]: did not occur
Fold enrichment over AAV9 in C57Bl/6 P2 (brain [2]): 14.48 fold
Fold enrichment over AAV9 in NHPP2 (brain [3]): 56.33 fold
fold enrichment in the DRG of NHPs relative to AAV9 [4]: 0.4 fold
fold enrichment in the brain of NHPs relative to AAV9 [4]: 73.6 fold
fold enrichment in the brain of NHPs relative to AAV9 ([4]; listed as GSGSPHSKAQNQQT): 76.6 fold
fold enrichment in the spinal cord of NHPs relative to AAV9 [4]: 29.4 fold
Fold enrichment over AAV9 in the brain of NHPs [4]: 73.615 fold
Fold enrichment over AAV9 in the spinal cord of NHPs [4]: 29.402 fold

B2: TTM-002: AAV9 capsid variant comprising HDSPHK (SEQ ID NO: 2) in loop IV (protein)
chain 1: B1 chain 1 with S454H, G455D, S459K, K460S, A461G
chain 2: GHDSPHKSGQNQQT
increase in transduction in cells expressing ALPL with deleted ER localization signal [1]: did not occur
Fold enrichment over AAV9 in C57Bl/6 P2 (brain [2]): 27.15 fold
Fold enrichment over AAV9 in NHPP2 (brain [3]): 33.96 fold
fold enrichment in the DRG of NHPs relative to AAV9 [4]: 0.0 fold
fold enrichment in the brain of NHPs relative to AAV9 [4]: 62.6 fold
fold enrichment in the spinal cord of NHPs relative to AAV9 [4]: 15.6 fold
Fold enrichment over AAV9 in the brain of NHPs [4]: 62.612 fold
Fold enrichment over AAV9 in the spinal cord of NHPs [4]: 15.641 fold
